The record followed here is patent US20220242963A1, “B-CELL ACTIVATING CD73 ANTIBODIES” (CORVUS PHARMACEUTICALS, INC., priority 2018, published 2022).

Data set [1] has as its system B cells (CD19+CD3−). Briefly: B cell activation in healthy donor PBMC, flow cytometry of surface markers / phospho ERK. Type of data set: cell-based, human. From the text:
With reference to FIGS. 2A-2E, each group of four bars from left to right represent data for: untreated donors, donors treated with human IgG1 isotype control, donors treated with BCR stimulation, and donors treated with CPI-006. The experiments for FIGS. 2A-2E are based on healthy donor PBMC treated overnight with flow cytometry analysis of surface markers on B cells (CD19^POS CD3^NEG). These lymphocyte markers are consistent with activation of B cells as well as other antigen presenting cell populations. […] The bar graph legend from top to bottom is representative of the data bars from left to right. […] For FIG. 2H the bar graph legend from top to bottom is representative of the data bars from left to right. For FIG. 2I the legend from top to bottom is representative of the data from top to bottom. […] For each group of four bars, the legend from top to bottom are representative of the bars from left to right.
PBMC were isolated from healthy donors and incubated with bead-bound anti-IgM, CPI-006 (10 μg/mL), or human IgG1 isotype control (10 μg/mL) overnight. Flow cytometry analysis was performed with gating on B cells (CD19+CD3−) and mean fluorescence intensity (MFI) was reported for staining with antibodies to the cell surface markers CD69, CD83, and CD25, as shown in FIGS. 2A-2C. PBMC were isolated from healthy donors and incubated with CPI-006, CPI-016, human IgG1 isotype control, and anti-human CD73 antibody, clone AD2 (available from Bio-Rad Antibodies) over a range of concentrations from about 0.1 μg/mL to more than 10 μg/mL. Flow cytometry analysis was performed with gating on B cells (CD19+CD3−) and mean fluorescence intensity (MFI) is reported for antibody staining of CD69, as shown in FIG. 2F. PBMC were isolated from healthy donors and incubated overnight with bead-bound anti-IgM or CPI-006 (1 μg/mL)+/−BTK inhibitor, ibrutinib (100 nM). Flow cytometry analysis was performed with gating on B cells (CD19+CD3−) and mean fluorescence intensity (MFI) is reported for antibody staining of CD69 and CD83, as shown in FIG. 2G. PBMC were isolated from healthy donors and incubated overnight with APCP (1 μM) or CPI-006 (1 μg/mL)+/−NECA (5′-N-ethylcarboxamidoadenosine). Flow cytometry analysis was performed with gating on B cells (CD19+CD3−) and mean fluorescence intensity (MFI) is reported for antibody staining of CD69, as shown in FIGS. 2H-2I. PBMC were isolated from healthy donors and incubated with the indicated treatments for 15 minutes. Flow cytometry analysis was performed with gating on the indicated cell populations and staining of phospho ERK was evaluated, as shown in FIG. 2J.
(A flow cytometer gives signals particle by particle.)

For data set [2], the system named is T cell clones. Briefly: T cell receptor Vb sequencing of peripheral blood (T cell clone frequency). Type of data set: in vivo, human. The method, then:
FIGS. 11A-11C show clonal abundance plots of T cell clones for three patients treated with CP1-006. Sequencing of the Vb region of the T cell receptor was performed to identify the frequency of unique T cell clones in peripheral blood samples collected pre-treatment and on-treatment at 6 weeks of 12 mg/kg CPI-006+ciforadenant (FIG. 11A), 12 mg/kg CPI-006 (FIG. 11B), or 18 mg/kg CPI-006 (FIG. 11C). Expansion of new T cell clones was observed after 6 weeks in 3 of 8 evaluated patients treated with CPI-006.
Immunomodulatory activity of CPI-006 was evaluated in patients administered CPI-006. […] Further, T cell activation was evaluated upon treatment with various dosages of the monotherapy CPI-006 or a combination therapy of CPI-006 and ciforadenant. Once a T cell clone is activated, the clone can expand and produce clonal copies of the original clone. […] The results further affirm CPI-006 is an immunomodulator of CD73 positive cells.

Data set [3] in a line: Phase 1/1B clinical trial: serum levels of free CPI-006 by ELISA. The format is in vivo, human. Here is the method:
FIGS. 3A-3D show the pharmacokinetics/pharmacodynamics and CD73 receptor occupancy of CPI-006 after a first infusion in human patients. […] The dotted line marks one-hundred percent occupancy CD73 receptor occupancy.
With reference to Table 1, serum samples were collected from patients treated with CPI-006 alone (i.e., monotherapy) and levels of free CPI-006 were measured by ELISA, as shown in FIG. 3A. Whole blood samples from patients treated with CPI-006 alone were fixed and receptor occupancy was measured by flow cytometry gating on CD73+CD8 T cells, as shown in FIG. 3B. As illustrated in FIGS. 3A-3D, receptor exposure to CPI-006 increases and clearance decreases with increasing doses of CPI-006, and CIP-006 is detectable for 21 days after administration of a single dose of 6 mg/kg or higher. […] Other results from the study are described below and in Table 4. BLQ is below limit of quantification. TBD is to be determined.
Background: In an ELISA, binding on a coated surface is turned into a signal by an enzyme label.

[4] abbreviates: with increasing doses of CPI-006, first infusion, FIGS. 3A-3D.

B1: CPI-006: humanized CD73 antibody, wherein the light chain is SEQ ID NO:8 and the heavy chain is SEQ ID NO:7; IgG1 Fcγ receptor-deficient (antibody, V domains shown)
VH: QVQLVQSGAEVEKPGASVKVSCKASGYTFTSYWITWVRQAPGQGLEWMGDIYPGSGNTNYNEKFKTRVTITADKSTSTAYMELSSLRSEDTAVYYCAKEGGLTTEDYALDYWGQGTLVTV
VL: EIVLTQSPATLSLSPGERATLSCRASKNVSTSGYSYMHWYQQKPGQAPRLLIYLASNLESGIPPRFSGSGYGTDFTLTINNIESEDAAYYFCQHSRELPFTFGQGTKVEIK
As for B1, in data set [1] (CPI-006 1 μg/mL, APCP 1 μM, overnight, FIGS. 2H-2I), the “B cell activation (CD69, CD83) +/− NECA, versus APCP” value was “independent of adenosine”. Moreover, the “B cell activation (CD69, CD83) +/− BTK inhibitor ibrutinib” value in data set [1] (CPI-006 1 μg/mL, ibrutinib 100 nM, overnight, FIG. 2G) is “via BTK”. In addition, in data set [1] (PBMC overnight, CPI-006 10 μg/mL, gated on B cells, FIG. 2A), the “expression of B cell activation marker CD69” value is “induces expression”. The “expression of B cell activation marker CD83” value in data set [1] (PBMC overnight, CPI-006 10 μg/mL, gated on B cells, FIG. 2B) is “induces expression”. Further, the “expression of B cell activation marker CD25” value in data set [1] (PBMC overnight, CPI-006 10 μg/mL, gated on B cells, FIG. 2C) is reported as “induces expression”. Besides, in data set [1] (PBMC overnight, gated on B cells, FIG. 2D), the “antigen-presenting cell marker CD86” value is reported as “activates”. Also, the “antigen-presenting cell marker MHC-II” value in data set [1] (PBMC overnight, gated on B cells, FIG. 2E) is listed as “activates”. In addition, the “phospho-ERK signaling in B cells versus T cells” value in data set [1] (PBMC, 15 minutes, FIG. 2J) was “to a greater extent than in CD4+ T cells or CD8+ T cells”. Besides, the “induction of B cell activation (CD69 MFI) compared with other antibodies” value in data set [1] (about 0.1 μg/mL to more than 10 μg/mL, versus CPI-016, isotype control, AD2, FIG. 2F) was “unique to CPI-006”. The “direct B cell activation” value in data set [1] (human B lymphocytes) is reported as “directly activates human B lymphocytes”. The “generation of new T cell clones” value in data set [2] (12 or 18 mg/kg CPI-006, or 12 mg/kg CPI-006 + ciforadenant, 6 weeks, FIGS. 11A-11C) was “new T cell clones were generated”. Moreover, the “evaluated patients with expansion of new T cell clones” value in data set [2] (after 6 weeks of treatment, peripheral blood) is 3 of 8. The “Serum CPI-006 at C1D8” value is “BLQ” in data set [3] (1 mg/kg, patients 1-3, BLQ is below limit of quantification) and 23.60 µg/mL in data set [3] (6 mg/kg, patient 7 (Colorectal)). Besides, the PK dose dependence entry in data set [3] (clinical data, 1, 3, and 6 mg/kg) is recorded as “dose proportional”. In data set [3] (single dose of 6 mg/kg or higher), the “time detectable in serum after administration” value was 21 days. For the same molecule, the clearance result in data set [3] (setting [4]) is “decreases”. In addition, the “exposure to CPI-006” value in data set [3] (setting [4]) was “increases”.
